The values below come from US20080131510.

Data set [1] concerns the target T1, Lys*-Ala-Gly-Leu-Leu-Cys (SEQ ID NO:32).
T1 chain: KAGLLC

In data set [2] the target is T2, Lys*-Pro-Ala-Gly-Leu-Leu-Gly-Cys (SEQ ID NO:2), pendant in PEG(8000)DA hydrogel and complexed with Pt (not fully specified).
T2 chain: KPAGLLGC

For data set [3], the target named is T3, Lys*-Pro-Ala-Gly-Leu-Leu-Gly-Cys (SEQ ID NO:2).
T3 chain: KPAGLLGC

Data set [4] addresses T4, Lys*-Gly-Leu-Cys (SEQ ID NO:33).
T4 chain: KGLC

The target of data set [5] is T1, Lys*-Ala-Gly-Leu-Leu-Cys (SEQ ID NO:32). As to the kind of experiment: peptide cleavage kinetics by HPLC, 10 nM activated MMP; the filing calls Km 'affinity or binding strength'.
In data set [6] the target is T3, Lys*-Pro-Ala-Gly-Leu-Leu-Gly-Cys (SEQ …). The data set is described as above.
For data set [7], the target named is T4, Lys*-Gly-Leu-Cys (SEQ ID NO:33). The data set is described as above.

B1: matrix metalloprotease-2 (MMP-2), activated (protein)
chain: YNFFPRKPKWDKNQITYRIIGYTPDLDPETVDDAFARAFQVWSDVTPLRFSRIHDGEADIMINFGRWEHGDGYPFDGKDGLLAHAFAPGTGVGGDSHFDDDELWTLGEGQVVRVKYGNADGEYCKFPFLFNGKEYNSCTDTGRSDGFLWCSTTYNFEKDGKYGFCPHEALFTMGGNAEGQPCKFPFRFQGTSYDSCTTEGRTDGYRWCGTTEDYDRDKKYGFCPETAMSTVGGNSEGAPCVFPFTFLGNKYESCTSAGRSDGKMWCATTANYDDDRKWGFCPDQGYSLFLVAAHEFGHAMGLEHSQDPGALMAPIYTYTKNFRLSQDDIKGIQELYGASPDIDLGTGPTPTLGPVTPEICKQDIVFDGIAQIRGEIFFFKDRFIWRTVTPRDKPMGPLLVATFWPELPEKIDAVYEAPQEEKAVFFAGNEYWIYSASTLERGYPKPLTSLGLPPDVQRVDAAFNWSKNKKTYIFAGDKFWRYNEVKKKMDPGFPKLIADAWNAIPDNLDAVVDLQGGGHSYFFKGAYYLKLENQSLKSVKFGSIKSDWLGC
Consider B1, for which the results for the Kcat/Km in data set [1], in data set [3] and in data set [4] were 171 M⁻¹ s⁻¹, 10700 M⁻¹ s⁻¹ and 439 M⁻¹ s⁻¹, respectively. In addition, the maximal velocity (Vmax) (usually the rate approached at saturating substrate) in data set [1] is 6.02e-09 M/s; in data set [3], 2.7e-07 M/s; in data set [4], 8.8e-10 M/s. The kcat (in general, the number of substrate molecules converted per active site and unit of time at saturation) in data set [1] was determined as 0.24 s⁻¹; in data set [3] it was 10.7 s⁻¹; in data set [4], 0.035 s⁻¹. The “release of cleaved fragment from the PEG(8000)DA hydrogels” value in data set [2] was “the addition of MMP-2 and MMP-9 showed a significantly higher release of cleaved fragment from the PEG(8000)DA hydrogels compared to the control”. Besides, the Km (commonly the substrate concentration at which the rate is half of its maximum) in data set [5] came out at 1.4 mM; in data set [6] it was 1 mM; in data set [7], 81 µM.
